Measured values taken from patent US20250025566A1, “PEPTIDE-DRUG CONJUGATES FOR TREATMENT OF NEURODEGENERATIVE DISEASES” (KØBENHAVNS UNIVERSITET, priority 2021, published 2025).
Square brackets hold non-standard residues; d marks the D form. Side chains are listed from the residue outwards. Ends that are not written are not given here. * marks the point of attachment. memantine = CC12CC3CC(C)(C1)CC(N*)(C3)C2; disulfide linker = not defined here; Pen = CC(C)(S)[C@H](N)C(=O)O

Key:
[1] = Body weight progression of 5×FAD Alzheimer's disease mouse model; format: in vivo; settings: female 5×FAD mice, 100 nmol/kg/day subcutaneous daily, 49 days
Protocol: Female wild-type (WT) control mice+vehicle treatment (n=12), 5×FAD AD mice+vehicle treatment and 5×FAD AD mice+GLP-1/memantine (100 nmol/kg/day) treatment were subcutaneously injected daily for 49 days following which brain regions of the mice were dissected and saved for ex vivo analyses.
(§1) Experiments were conducted using female 5×FAD (Jackson Laboratory, 34840-JAX) mice kept on a chow diet (Altromin #1310, Lage, Germany). The pharmacological studies were initiated at 8-week of age and the mice treated with once-daily subcutaneous injections of GLP-1/memantine or saline (control) for 49 days with weekly measurements of body weight. Specifically, compounds were administered at a volume of 5 μL per gram, mice group-housed (n=2-5 mice per cage) and maintained on a 12-hour light-dark cycle (light 6 am-[…]) at a temperature of 21-23° C. For week 5 and 6, the mice were single-housed and transferred to a digitally ventilated cage system. For week 7, the mice were re-grouped in groups identical to weeks 0 to 4. Finally, mice were euthanized on day 49, tissues harvested, snap-frozen using liquid nitrogen and stored at −80° C. prior to analyses.

[2] = system: 5×FAD mice; test: Number of amyloid plaques in frontal cortex and hippocampus of 5×FAD mice (Thioflavine S); format: in vivo; settings: once-daily subcutaneous, 49 days, vs saline
Text: Amyloid plaques are commonly found in subjects suffering from Alzheimer's and is caused by abnormal levels of the naturally occurring protein beta-amyloid 42 which clump together to form plaques that collect between neurons and disrupt cell function. Thus, patients suffering from Alzheimer's display elevated levels of amyloid plaques. […] Thus, without being bound by any particular theory, the inventors postulate that the conjugated molecule according to the present invention has a neuroprotective role.
Experiments were conducted using female 5×FAD (Jackson Laboratory, 34840-JAX) mice kept on a chow diet (Altromin #1310, Lage, Germany). The pharmacological studies were initiated at 8-week of age and the mice treated with once-daily subcutaneous injections of GLP-1/memantine or saline (control) for 49 days. Specifically, compounds were administered at a volume of 5 μL per gram, mice group housed (n=2-5 mice per cage) and maintained on a 12-hour light-dark cycle (light 6 am-[…]) at a temperature of 21-23° C. For week 5 and 6, the mice were single-housed and transferred to a digitally ventilated cage system. […] Every 6th slide through hippocampus (bregma: −2.80 mm to −0.94 mm) and frontal cortex (bregma: 0.14 mm to 2.96 mm) were collected and stained with Thioflavine S to quantify amyloid plaque deposition.

[3] = system: pro-inflammatory markers IL-1b, IL-6 and TNF-α; test: Gene expression of pro-inflammatory markers in hippocampus of 5×FAD mice (qPCR); format: in vivo; settings: once-daily subcutaneous, 49 days
Protocol: Expression (as measured by mRNA) of pro-inflammatory markers, IL-1b, IL-6 and TNF-α increased across the board in the 5×FAD AD mouse model.
as §1, with “For week 5 and 6, the mice were single-housed and transferred to a digitally ventilated cage system. For week 7, the mice were re-grouped in groups identical to weeks 0 to 4. Finally, mice were euthanized on day 49, tissues harvested, snap-frozen using liquid nitrogen and stored at −80° C. prior to analyses.” left out
Hippocampal tissue from Example 3 was homogenized in a Trizol reagent (QIAzol Lysis Reagent, Qiagen) using a stainless steel bead (Qiagen) and a TissueLyser LT (Qiagen) for 3 min at 20 Hz. […] After RNA extraction, RNA content was measured using a NanoDrop 2000 (Thermo Fisher) and 500 ng of RNA was converted into cDNA by mixing FS buffer and DTT (Thermo Fisher) with Random Primers (Sigma-Aldrich) and incubated for 3 min at 70° C. followed by addition of dNTPs, RNase out, Superscript III (Thermo Fisher) and placed in a thermal cycler for 5 min at 25° C., 60 min at 50° C., 15 min at 70° C., and kept at −20° C. until further processing. […]

[4] = system: primary rat hippocampal neurons; test: Neuroprotection in primary hippocampal neurons (NMDA-induced neurotoxicity, LDH activity); format: cell-based; settings: NMDA 100 μM, 24 hours, GLP-1 1 μM
Protocol: Primary rat hippocampal neurons were incubated with either buffer, NMDA (to induce neurotoxicity), NDMA+GLP-1 or NMDA+GLP-1/memantine conjugate for 24 hours. Media was harvested and analysed for Lactate Dehydrogenase (LDH) activity as an indirect measure of cellular cytotoxicity.
Primary cultures of hippocampal neurons were prepared from Sprague-Dawley rat fetuses (E18) and cells were diluted in Neurobasal medium containing B27 supplement (5×10^5 cells/mL) in a Poly-L-Lysin pre-coated 24-well cell culture plate. The neurons were kept at 37° C. in a humidified incubator with 5% C02 atmosphere. After 8 days in vitro, cultures were treated with either vehicle, NMDA (100 μM), NMDA+GLP-1 (1 μM) or NMDA+GLP-1/Memantine for 24 hours. Cell culture medium (50 μL) was dispatched to a 96-well ELISA plate and analyzed for Lactate Dehydrogenase (LDH) activity (CytoTox-96, Nonradioactive Cytotoxicity assay, Promega) according to the manufacturer's protocol.

Substance | body weight progression [1] | number of amyloid plaques in frontal cortex and hippocampus [2] | expression (mRNA) of pro-inflammatory markers IL-1b, IL-6 and TNF-α in hippocampus [3] | NMDA-induced neurotoxicity (Lactate Dehydrogenase activity in media as indirect measure of cytotoxicity) [4]
GLP-1 Pen40/memantine: GLP-1 peptide of SEQ ID NO:1 with Pen40, conjugated to memantine via disulfide linker (penicillamine linked) (HAEGTFTSDVSSYLEEQAAKEFIAWLVKGGPSSGAPPPS[Pen]([disulfide linker-memantine])-NH2; reading uncertain; listed as Homo sapiens) | elicits only a transient weight loss | reduced formation of amyloid plaques | completely abolishes the induction of inflammation | prevents the NMDA-induced neurotoxicity
GLP-1: GLP-1 peptide alone, the unconjugated peptide control in the neuroprotection test [reference compound] | – | – | – | but not GLP-1 peptide alone, prevents the NMDA-induced neurotoxicity
